The chains are these.
B1: Lip-VEL1VEL (residues 589–692), wild type [Arabidopsis thaliana] / itself (parent)
chain: SDEIKNRQARIEISMKDNCNNGDHSANGGTESGLEHCVKIIRQLECSGHIDKNFRQKFLTWYSLRATSQEIRVVKIFIDTFIDDPMALAEQLIDTFDDRVSIKR
B2: Lip-VIN3VEL (residues 500–603), wild type [Arabidopsis thaliana] / itself (parent)
chain: GKQGGNKRFKSRTVSLNEKPEINNAANGVGDKDLGHIVKTIRCLEEEGHIDKSFRERFLTWYSLRATHREVRVVKIFVETFMEDLSSLGQQLVDTFSESILSKR

Test in all cases: SEC-MALS
Variants of B1 are the subject of experiment [1]. Conditions: with itself; 255 µM sample; predicted molecular mass 23.4 kDa.
The variants in experiment [2] derive from B1. The conditions noted are these: with itself; 255 µM sample; predicted molecular mass 23.4 kDa. This is another data set of the same source.
Variants of B2 are the subject of experiment [3]. The conditions noted are these: with itself; predicted molecular mass 20.3 kDa; concentration not given.
Variants of B2 are the subject of experiment [4]. Conditions: with itself; predicted molecular mass 20.3 kDa; concentration not given. This is another data set of the same source.

As for SDEIKNRQARIEISMKDNCNNGDHSANGGTESGLEHCVKIIRQLECSGHIDKNFAQDFLTWYSLRATSQEIRVVKIFIDTFIDDPMALAEQLIDTFDDRVSIKR [chain 1 R55A K57D], the screen value in experiment [1] is 1.1 molecules; in experiment [2], 25 kDa.

Regarding GKQGGNKRFKSRTVSLNEKPEINNAANGVGDKDLGHIVKTIRCLEEEGHIDKSFRERFLTWYSDRATHREVRVVKIFVETFMEDLSSLGQQLVDTFSESILSKR [chain 1 L64D], the screen value in experiment [3] was 1.6 molecules; in experiment [4], 33.5 kDa.

Take GKQGGNKRFKSRTVSLNEKPEINNAANGVGDKDLGHIVKTIHCLEEEGHIDKSFRERFLTWYSLRATHREVRVVKIFVETFMEDLSSLGQQLVDTFSESILSKR [chain 1 R42H]: the values for the screen value in experiment [3] and in experiment [4] were 1.2 molecules and 23.8 kDa, respectively.

For GKQGGNKRFKSRTVSLNEKPEINNAANGVGDKDLGHIVKTIRCLEEEGHIDKSFREDFLTWYSLRATHREVRVVKIFVETFMEDLSSLGQQLVDTFSESILSKR [chain 1 R57D], the screen value in experiment [3] is 1.2 molecules; in experiment [4] it was 24.6 kDa.

Source of the values: article PMC7614096, “Head-to-tail polymerization by VEL proteins underpins cold-induced Polycomb silencing in flowering control” (Cell Reports, 2022).
